Positions count from the first letter of the chain named.
T1: IL4R-Fc-biotin (UniProt P24394 26-232, biotinylated (sites not given))
T1 construct: also called IL4R-Fc protein (Sinobiological Co., Ltd., 10402-H02H); not shown: Fc part
T1 sequence (looked up): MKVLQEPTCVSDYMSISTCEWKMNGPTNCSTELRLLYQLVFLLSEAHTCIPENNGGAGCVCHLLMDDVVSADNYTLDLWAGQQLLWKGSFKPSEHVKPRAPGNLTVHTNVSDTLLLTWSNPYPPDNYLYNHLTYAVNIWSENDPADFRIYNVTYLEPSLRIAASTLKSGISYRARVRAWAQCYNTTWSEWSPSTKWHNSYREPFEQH

T2: receptors of IL4/IL13 on TF-1 cells and PBMC (IL4 receptor) (human, UniProt P24394 26-825)
T2 sequence (looked up): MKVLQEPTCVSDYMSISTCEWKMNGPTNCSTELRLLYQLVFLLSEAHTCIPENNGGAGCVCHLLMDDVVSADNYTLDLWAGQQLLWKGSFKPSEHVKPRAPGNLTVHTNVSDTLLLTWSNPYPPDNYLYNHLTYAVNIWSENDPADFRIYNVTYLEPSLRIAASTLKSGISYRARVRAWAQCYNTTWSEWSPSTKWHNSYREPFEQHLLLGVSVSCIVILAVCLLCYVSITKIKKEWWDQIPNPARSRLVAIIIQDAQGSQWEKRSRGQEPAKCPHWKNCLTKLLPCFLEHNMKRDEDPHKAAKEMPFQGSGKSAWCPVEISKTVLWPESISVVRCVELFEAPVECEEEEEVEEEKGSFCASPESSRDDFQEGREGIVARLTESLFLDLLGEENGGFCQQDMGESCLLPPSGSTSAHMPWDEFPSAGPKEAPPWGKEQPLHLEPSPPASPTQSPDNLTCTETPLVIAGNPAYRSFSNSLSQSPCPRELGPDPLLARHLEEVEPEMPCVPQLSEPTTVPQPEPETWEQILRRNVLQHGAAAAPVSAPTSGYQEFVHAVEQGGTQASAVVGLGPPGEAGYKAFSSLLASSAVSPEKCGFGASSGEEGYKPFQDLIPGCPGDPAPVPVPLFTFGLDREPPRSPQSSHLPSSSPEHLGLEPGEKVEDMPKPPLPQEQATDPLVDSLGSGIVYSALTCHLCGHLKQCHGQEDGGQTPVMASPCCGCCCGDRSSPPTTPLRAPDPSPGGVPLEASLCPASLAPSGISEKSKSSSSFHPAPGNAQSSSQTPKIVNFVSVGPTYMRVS

T3: human IL4R (10402-H08H, Sinobiological Co., Ltd.) (human, UniProt P24394 26-232)
T3 construct: Bought protein, coated on ELISA plates; also called IL4R-His protein; IL4R protein; not shown: His tag
T3 sequence (looked up): T1 sequence (looked up)

B1: IL4R-BA030-IgG4 (antibody, V domains shown)
VH: QVQLVESGGGVVQPGRSLRLSCAASGFTFSSYAIHWVRQAPGKGLEWVAVISYDGSKKYYADSVKGRFTISRDNSKNTLYLQMNSLRAEDTAVYYCAREYYYGMDVWGQGTTVTVSS
VL: DIVMTQSPSTLSASVGDRVTITCRASQSISNWLAWYQQKPGKAPKRLIYKASSLESGVPSRFSGSGSGTEFTLTISSLQPDDFATYYCQQYNRYFTFGQGTKLEIKR
notes: also called IL4RQ14-BA030
B2: IL4R-BA173-IgG4 (antibody, V domains shown)
VH: QVQLVESGGGVVQPGRSLRLSCAASGFTFSSYAMHWVRQAPGKGLEWVAVISYDGSNKYYADSVKGRFTISRDNSKNTLYLQMNSLRAEDTAVYYCARGLTTVRGVLYWGQGTLVTVSS
VL: DIVMTQSPSTLSASVGDRVTITCRASQSISTRLAWYQQKPGKAPKLLVYWASSLESGVPSRFSGSGSGTEFTLAISSLQPDDFGTYYCQQYTSYSWTFGQGTKLEIKR
notes: also called IL4RQ6-BA173
B3: IL4R-BA167-IgG4 (antibody, V domains shown)
VH: B2 VH
VL: EIVMTQSPSSLSASLGDRVTITCRASQNIGSRLAWYQQKPGKAPKLLIYKASSLESGVPSRFSGSGSGTEFTLTISSLQPDDFATYYCQQYNSYSWTFGQGTKLEIKR
notes: also called IL4RQ6-BA167
B4: BA420 (antibody, IgG4, V domains shown)
VH: QVQLVESGGGAVQPGRSLRVSCAASGFTFSSHGMDWVRQVPGKGLEWVAVISYDGKKKYYADSVKGRFTISRDNSKNTLYLQMNSLRAEDTAIYYCVKESRYYYGMDVWGQGTTVTVSS
VL: DIVMTQSPSTLSASVGDRVTITCRASPSISSWLAWYQQKPGKAPKVLIYKSSRLESGVPSRFSGNGSGTEFTLTISSLQPDDFATYYCQQYNGYSWTFGQGTKVEIKR
notes: also called IL4RQ24-BA420
B5: BA034 (antibody, IgG4, V domains shown)
VH: B4 VH with G8R
VL: B4 VL with V3Q, P27Q, I29F, S30N, V46L, N65S
notes: also called IL4RQ14-BA034
B6: BA1301 (antibody, IgG4, V domains shown)
VH: QVQLVESGGGVVQPGRSLRLSCAASGLTFSSYAMHWVRQAPGKGLEWVAVISYDGSNKYYADSVKGRFTISRDNSKNTLYLQMNSLRAEDTAVYYCARGFGYFDLWGRGTLVTVSS
VL: DIQMTQSPSTLSASVGDRVTITCRASQSITRRLAWYQQKPGKAPKLLIYKASSLESGVPSRFSGSGSGTEFTLTISSLQPDDFATYYCQQYVSFSRTFGQGTKVEIKR
notes: also called IL4RQ29-BA1301
B7: Dupilumab (antibody, human IgG4 S228P, kappa, V domains shown)
VH: EVQLVESGGGLEQPGGSLRLSCAGSGFTFRDYAMTWVRQAPGKGLEWVSSISGSGGNTYYADSVKGRFTISRDNSKNTLYLQMNSLRAEDTAVYYCAKDRLSITIRPRYYGLDVWGQGTTVTVSS
VL: DIVMTQSPLSLPVTPGEPASISCRSSQSLLYSIGYNYLDWYLQKSGQSPQLLIYLGSNRASGVPDRFSGSGSGTDFTLKISRVEAEDVGFYYCMQALQTPYTFGQGTKLEIKR

Tests used:
[1] = biological target: T1, IL4R-Fc-biotin; experiment: competition ELISA: IL4 coated, IL4R-Fc-biotin (0.4 µg/ml) with antibody dilutions
Experimental: IL4 (11846-HANE, Sinobiological Co., Ltd.) was coated at the concentration of 0.2 μg/ml in 100 μL/well at 4° C. overnight; 3% skimmed milk powder was used for blocking 1 h; at the same time, 50 μL of IL4R-Fc-biotin (0.4 μg/ml) and 50 μL of candidate antibody at different concentrations (16 μg/mL, 4 μg/mL, 1 μg/mL, 0.25 μg/mL, 0.0625 μg/mL, 0.015625 μg/mL, and 0.00390625 μg/mL), 100 μL in total, were added to the blocked ELISA plate and co-incubated at 37° C. for 1 h; after washing three times with PBST, […]/HRP (R&D, Cat. No.: 890803) was added, and incubated at 37° C. for 1 h; and 100 μL of TMB color developing solution (Beijing Meike Wande Co., Ltd., Cat. No.: 1001) was added to each well. Color development was stopped, after 10 min color development, with the addition of 50 μL of 2 M concentrated sulfuric acid, and OD450 was measured with a microplate reader.

[2] = biological target: T2, receptors of IL4/IL13 on TF-1 cells and …; experiment: cell-based or functional assay
[3] = biological target: T1, IL4R-Fc-biotin; experiment: competition ELISA: IL13RA1 coated, IL4R-Fc-biotin (0.24 µg/ml) and IL13 (1 µg/ml) pre-incubated with antibody dilutions
Experimental: IL13RA1 (10943-H08H, Sinobiological Co., Ltd.) was coated at the concentration of 0.8 μg/ml in 100 μL/well at 4° C. overnight; 3% skimmed milk powder was used for blocking 1 h; at the same time, IL4R-Fc-biotin (0.24 μg/ml) and IL13 (1 μg/ml, 10369-HANE, Sinobiological Co., Ltd.) and candidate antibody at different concentrations (30 μg/mL, 7.5 μg/mL, 1.875 μg/mL, 0.46875 μg/mL, 0.1171875 μg/mL and 0 μg/mL) were co-incubated at 37° C. for 1 h, then added to the blocked ELISA plate and co-incubated at 37° C. for another 1 h; after washing three times with PBST, […]/HRP (R&D, Cat. No.: 890803) was added, and incubated at 37° C. for 1 h; and after washing four times with PBST, TMB was used for color development for 10 min. 50 μL of 2M H₂SO₄ was added to each well to stop color development. OD450 was measured with a microplate reader.

[4] = biological target: T1, IL4R-Fc-biotin; experiment: competition ELISA: IL4 coated, IL4R-Fc-biotin (0.4 µg/ml) pre-incubated with antibody dilutions
Experimental: IL4 (11846-HANE, Sinobiological Co., Ltd.) was coated at the concentration of 0.2 μg/ml in 100 μL/well at 4° C. overnight; 3% skimmed milk powder was used for blocking 1 h; at the same time, IL4R-Fc-biotin (0.4 μg/ml) and candidate antibody at different concentrations (30 μg/mL, 7.5 μg/mL, 1.875 μg/mL, […], 0.1171875 μg/mL and 0 μg/mL) were co-incubated at 37° C. for 1 h, then added to the blocked ELISA plate and co-incubated at 37° C. for another 1 h; then […]/HRP (R&D, Cat. No.: 890803) was added, and incubated at 37° C. for 1 h; color development was stopped, after 10 min color development, with the addition of 50 μL of 2M H₂SO₄ to each well. OD450 was measured with a microplate reader.

[5] = biological target: T3, human IL4R (10402-H08H, Sinobiological …); experiment: ELISA: IL4R coated at graded concentrations (0.4-0 µg/ml), antibody fixed at 2 µg/ml
Experimental: CBS coating solution (pH 9.6 carbonic acid solution) was used to coat protein IL4R (10402-H08H, Sinobiological Co., Ltd.) at different concentrations (0.4 μg/ml, 0.2 μg/ml, 0.1 μg/ml, 0.05 μg/ml, 0.025 μg/ml, 0.0125 μg/ml, 0.00625 μg/ml and 0 μg/ml) in 100 μL/well at 4° C. overnight; 3% skimmed milk powder was used for blocking 1 h at 37° C.; 100 μL of candidate antibody at 2 μg/ml was added to each well and incubated at 37° C. for 1 h; and then goat anti-human IgG (H+L)/HRP (KPL, Cat. No.: 474-1006) was added, and incubated at 37° C. for 1 h. Color development was stopped, after 10 min color development, with the addition of 50 μL of 2 M H₂SO₄ to each well, and OD450 was measured with a microplate reader. Compared with the control antibody, 3 antibodies had close binding sensitivity to IL4R protein.

| Binder | IC50 [1] [mg/L] | IC50 (IL4, ng/mL), PBMC, inhibition of IL4-promoted proliferation [2] [ng/mL] | IC50 (IL4, ng/mL), TF-1 Cells, inhibition of IL4-induced proliferation [2] [ng/mL] | IC50 (IL13, ng/mL), TF-1 Cells, inhibition of IL13-induced proliferation [2] [ng/mL] | IC50 [3] [mg/L] | IC50 [4] [mg/L] | EC50 [5] [mg/L] |
| --- | --- | --- | --- | --- | --- | --- | --- |
| B1 | 0.343 | 8.09 | 227 | 9 | 0.381 | 0.346 | 0.031 |
| B2 | 0.354 | 1.02 | 66 | 6 | 0.302 | 0.367 | 0.025 |
| B3 | 0.458 | 1.52 | 139 | 5 | 0.407 | 0.477 | 0.045 |
| B4 | 0.334 |  |  |  |  |  |  |
| B5 | 0.71 |  |  |  |  |  |  |
| B6 | 0.592 |  |  |  |  |  |  |
| B7 |  | 2.87 | 65 | 9 |  |  |  |

From patent US20220162328A1 (SHANDONG BOAN BIOTECHNOLOGY, published 2022)
